Molecular target: the molecule itself
Assay: SEC-MALS

B1: SsRidA (SSA_0809), reactive intermediate deaminase A homolog from Streptococcus sanguinis (enzyme, UniProt A3CM35 1-126, looked up)
chain: MAKTIHTDKAPAAIGPYVQGKIVGNLLFASGQIPLSPETGEIIGTTIEEQTQQVLKNVSAILEAAGTDFDHVVKATCFLSDINDFVAFNEVYKTAFTEAFPARSAVEVARLPKDVKIEIEVIAEIL
  stoichiometry N: 3
